Experiment [1] concerns the target human corticotropin-releasing factor 2a (CRF2a receptor) (human), Q13324. Kind of experiment: cell-based or functional assay.
The target in experiment [2] is T1, CRF1R receptor (UniProt P34998 24-415, limits assumed).
T1 sequence (looked up): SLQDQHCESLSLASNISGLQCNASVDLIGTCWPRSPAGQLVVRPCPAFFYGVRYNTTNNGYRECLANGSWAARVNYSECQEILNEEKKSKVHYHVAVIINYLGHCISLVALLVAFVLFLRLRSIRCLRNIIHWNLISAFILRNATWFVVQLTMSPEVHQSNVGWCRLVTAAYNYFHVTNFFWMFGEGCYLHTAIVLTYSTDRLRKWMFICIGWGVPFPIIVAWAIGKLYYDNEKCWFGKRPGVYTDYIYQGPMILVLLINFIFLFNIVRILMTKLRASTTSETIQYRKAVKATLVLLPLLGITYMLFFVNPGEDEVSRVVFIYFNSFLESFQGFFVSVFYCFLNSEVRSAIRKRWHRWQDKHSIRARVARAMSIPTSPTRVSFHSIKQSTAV
Kind of experiment: cell-based or functional assay.

*1 amine or outer side, *2 acyl side, *3 side chain or, on linkers, in order; H or OH if unused. Where no end group is shown, it is not given here. Side-chain parts run from the residue outwards. [ ]: non-standard residue; d: D form. The star is where a group is joined. C18 diacid = O=C(O)CCCCCCCCCCCCCCCCC(=O)*; C16 diacid = O=C(O)CCCCCCCCCCCCCCC(=O)*; γGlu = O=C(O)[C@H](CCC(=O)[*:2])N[*:1]; NMeI = CC[C@H](C)[C@H](NC)C(=O)O; Api = NC1(C(=O)O)CCNCC1; Ac3c = NC1(C(=O)O)CC1; Aib = CC(C)(N)C(=O)O Some results are limits rather than exact numbers.

Sequence of human corticotropin-releasing factor 2a (CRF2a receptor) (human), Q13324 (Q13324 20-411): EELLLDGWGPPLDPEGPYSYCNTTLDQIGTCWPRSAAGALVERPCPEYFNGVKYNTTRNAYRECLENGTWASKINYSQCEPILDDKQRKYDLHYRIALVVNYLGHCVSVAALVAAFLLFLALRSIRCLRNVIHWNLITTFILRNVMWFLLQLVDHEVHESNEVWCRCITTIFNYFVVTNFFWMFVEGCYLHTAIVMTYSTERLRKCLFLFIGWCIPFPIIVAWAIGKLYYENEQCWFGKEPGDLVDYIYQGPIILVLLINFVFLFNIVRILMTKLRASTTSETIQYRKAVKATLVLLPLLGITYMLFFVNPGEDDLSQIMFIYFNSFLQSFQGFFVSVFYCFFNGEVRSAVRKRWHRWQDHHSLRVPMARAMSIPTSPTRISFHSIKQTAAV

B1: SEQ ID NO 74 (peptide)
peptide: [NMeI]VLSLD[dV]PIKLK([γGlu-C16 diacid])KILLEQEKQKAQREQAETN[Aib]QILAQV-NH2
modifications: N-terminus assumed
SMILES: CC[C@H](C)[C@H](NC)C(=O)N[C@H](C(=O)N[C@@H](CC(C)C)C(=O)N[C@@H](CO)C(=O)N[C@@H](CC(C)C)C(=O)N[C@@H](CC(=O)O)C(=O)N[C@@H](C(=O)N1CCC[C@H]1C(=O)N[C@H](C(=O)N[C@@H](CCCCN)C(=O)N[C@@H](CC(C)C)C(=O)N[C@@H](CCCCNC(=O)CC[C@H](NC(=O)CCCCCCCCCCCCCCC(=O)O)C(=O)O)C(=O)N[C@@H](CCCCN)C(=O)N[C@H](C(=O)N[C@@H](CC(C)C)C(=O)N[C@@H](CC(C)C)C(=O)N[C@@H](CCC(=O)O)C(=O)N[C@@H](CCC(N)=O)C(=O)N[C@@H](CCC(=O)O)C(=O)N[C@@H](CCCCN)C(=O)N[C@@H](CCC(N)=O)C(=O)N[C@@H](CCCCN)C(=O)N[C@@H](C)C(=O)N[C@@H](CCC(N)=O)C(=O)N[C@@H](CCCNC(=N)N)C(=O)N[C@@H](CCC(=O)O)C(=O)N[C@@H](CCC(N)=O)C(=O)N[C@@H](C)C(=O)N[C@@H](CCC(=O)O)C(=O)N[C@H](C(=O)N[C@@H](CC(N)=O)C(=O)NC(C)(C)C(=O)N[C@@H](CCC(N)=O)C(=O)N[C@H](C(=O)N[C@@H](CC(C)C)C(=O)N[C@@H](C)C(=O)N[C@@H](CCC(N)=O)C(=O)N[C@H](C(N)=O)C(C)C)[C@@H](C)CC)[C@@H](C)O)[C@@H](C)CC)[C@@H](C)CC)C(C)C)C(C)C
B1 showed an EC50 [nM] (cAMP) in experiment [1] of 0.15 nM. Also, in experiment [2], the “Emax (% I)” value amounted to 7%.

B2: SEQ ID NO 75 (peptide)
peptide: [NMeI]VLSLD[dV]PIKLK([γGlu-C16 diacid])KILLEQEKQK[Aib]QREQAETN[Aib]QILAQV-NH2
modifications: N-terminus assumed
SMILES: CC[C@H](C)[C@H](NC)C(=O)N[C@H](C(=O)N[C@@H](CC(C)C)C(=O)N[C@@H](CO)C(=O)N[C@@H](CC(C)C)C(=O)N[C@@H](CC(=O)O)C(=O)N[C@@H](C(=O)N1CCC[C@H]1C(=O)N[C@H](C(=O)N[C@@H](CCCCN)C(=O)N[C@@H](CC(C)C)C(=O)N[C@@H](CCCCNC(=O)CC[C@H](NC(=O)CCCCCCCCCCCCCCC(=O)O)C(=O)O)C(=O)N[C@@H](CCCCN)C(=O)N[C@H](C(=O)N[C@@H](CC(C)C)C(=O)N[C@@H](CC(C)C)C(=O)N[C@@H](CCC(=O)O)C(=O)N[C@@H](CCC(N)=O)C(=O)N[C@@H](CCC(=O)O)C(=O)N[C@@H](CCCCN)C(=O)N[C@@H](CCC(N)=O)C(=O)N[C@@H](CCCCN)C(=O)NC(C)(C)C(=O)N[C@@H](CCC(N)=O)C(=O)N[C@@H](CCCNC(=N)N)C(=O)N[C@@H](CCC(=O)O)C(=O)N[C@@H](CCC(N)=O)C(=O)N[C@@H](C)C(=O)N[C@@H](CCC(=O)O)C(=O)N[C@H](C(=O)N[C@@H](CC(N)=O)C(=O)NC(C)(C)C(=O)N[C@@H](CCC(N)=O)C(=O)N[C@H](C(=O)N[C@@H](CC(C)C)C(=O)N[C@@H](C)C(=O)N[C@@H](CCC(N)=O)C(=O)N[C@H](C(N)=O)C(C)C)[C@@H](C)CC)[C@@H](C)O)[C@@H](C)CC)[C@@H](C)CC)C(C)C)C(C)C
In experiment [1], B2 had an EC50 [nM] (cAMP) of 0.19 nM. Besides, the “Emax (% I)” value in experiment [2] came to 3%.

B3: SEQ ID NO 153 (peptide)
peptide: Ac-IVLSLD[dV]PIKLK([γGlu-C16 diacid])KILLEQEKQK[Aib]QREQAETN[Api]QILAQV-NH2
SMILES: CC[C@H](C)[C@H](NC(C)=O)C(=O)N[C@H](C(=O)N[C@@H](CC(C)C)C(=O)N[C@@H](CO)C(=O)N[C@@H](CC(C)C)C(=O)N[C@@H](CC(=O)O)C(=O)N[C@@H](C(=O)N1CCC[C@H]1C(=O)N[C@H](C(=O)N[C@@H](CCCCN)C(=O)N[C@@H](CC(C)C)C(=O)N[C@@H](CCCCNC(=O)CC[C@H](NC(=O)CCCCCCCCCCCCCCC(=O)O)C(=O)O)C(=O)N[C@@H](CCCCN)C(=O)N[C@H](C(=O)N[C@@H](CC(C)C)C(=O)N[C@@H](CC(C)C)C(=O)N[C@@H](CCC(=O)O)C(=O)N[C@@H](CCC(N)=O)C(=O)N[C@@H](CCC(=O)O)C(=O)N[C@@H](CCCCN)C(=O)N[C@@H](CCC(N)=O)C(=O)N[C@@H](CCCCN)C(=O)NC(C)(C)C(=O)N[C@@H](CCC(N)=O)C(=O)N[C@@H](CCCNC(=N)N)C(=O)N[C@@H](CCC(=O)O)C(=O)N[C@@H](CCC(N)=O)C(=O)N[C@@H](C)C(=O)N[C@@H](CCC(=O)O)C(=O)N[C@H](C(=O)N[C@@H](CC(N)=O)C(=O)NC1(C(=O)N[C@@H](CCC(N)=O)C(=O)N[C@H](C(=O)N[C@@H](CC(C)C)C(=O)N[C@@H](C)C(=O)N[C@@H](CCC(N)=O)C(=O)N[C@H](C(N)=O)C(C)C)[C@@H](C)CC)CCNCC1)[C@@H](C)O)[C@@H](C)CC)[C@@H](C)CC)C(C)C)C(C)C
Turning to B3, the EC50 [nM] (cAMP) in experiment [1] was found to be 0.41 nM. Moreover, the “Emax (% I)” value in experiment [2] is 22%.
For the molecule VLSLD[dV]PIKLK([γGlu-C16 diacid])QILLKQERQKKQREQAEKNKQILEQV-NH2 [SEQ ID NO 4], the EC50 [nM] (cAMP) in experiment [1] worked out at 0.44 nM. In experiment [2], the EC50 – broadly, the concentration giving half of the maximal effect – was above 250 nM and the “Emax (% I)” value is 4%.

B4: SEQ ID NO 136 (peptide)
peptide: Ac-IVLSLD[dV]PIKLK([γGlu-C18 diacid])KILLEQEKQKKQREQAETN[Ac3c]QILAQV-NH2
SMILES: CC[C@H](C)[C@H](NC(C)=O)C(=O)N[C@H](C(=O)N[C@@H](CC(C)C)C(=O)N[C@@H](CO)C(=O)N[C@@H](CC(C)C)C(=O)N[C@@H](CC(=O)O)C(=O)N[C@@H](C(=O)N1CCC[C@H]1C(=O)N[C@H](C(=O)N[C@@H](CCCCN)C(=O)N[C@@H](CC(C)C)C(=O)N[C@@H](CCCCNC(=O)CC[C@H](NC(=O)CCCCCCCCCCCCCCCCC(=O)O)C(=O)O)C(=O)N[C@@H](CCCCN)C(=O)N[C@H](C(=O)N[C@@H](CC(C)C)C(=O)N[C@@H](CC(C)C)C(=O)N[C@@H](CCC(=O)O)C(=O)N[C@@H](CCC(N)=O)C(=O)N[C@@H](CCC(=O)O)C(=O)N[C@@H](CCCCN)C(=O)N[C@@H](CCC(N)=O)C(=O)N[C@@H](CCCCN)C(=O)N[C@@H](CCCCN)C(=O)N[C@@H](CCC(N)=O)C(=O)N[C@@H](CCCNC(=N)N)C(=O)N[C@@H](CCC(=O)O)C(=O)N[C@@H](CCC(N)=O)C(=O)N[C@@H](C)C(=O)N[C@@H](CCC(=O)O)C(=O)N[C@H](C(=O)N[C@@H](CC(N)=O)C(=O)NC1(C(=O)N[C@@H](CCC(N)=O)C(=O)N[C@H](C(=O)N[C@@H](CC(C)C)C(=O)N[C@@H](C)C(=O)N[C@@H](CCC(N)=O)C(=O)N[C@H](C(N)=O)C(C)C)[C@@H](C)CC)CC1)[C@@H](C)O)[C@@H](C)CC)[C@@H](C)CC)C(C)C)C(C)C
As for B4, the EC50 [nM] (cAMP) in experiment [1] is 0.16 nM. In addition, the “Emax (% I)” value in experiment [2] came to 5%.

B5: SEQ ID NO 152 (peptide)
peptide: Ac-IVLSLD[dV]PIKLK([γGlu-C16 diacid])KILLEQEKQKAQREQAETN[Api]QILAQV-NH2
SMILES: CC[C@H](C)[C@H](NC(C)=O)C(=O)N[C@H](C(=O)N[C@@H](CC(C)C)C(=O)N[C@@H](CO)C(=O)N[C@@H](CC(C)C)C(=O)N[C@@H](CC(=O)O)C(=O)N[C@@H](C(=O)N1CCC[C@H]1C(=O)N[C@H](C(=O)N[C@@H](CCCCN)C(=O)N[C@@H](CC(C)C)C(=O)N[C@@H](CCCCNC(=O)CC[C@H](NC(=O)CCCCCCCCCCCCCCC(=O)O)C(=O)O)C(=O)N[C@@H](CCCCN)C(=O)N[C@H](C(=O)N[C@@H](CC(C)C)C(=O)N[C@@H](CC(C)C)C(=O)N[C@@H](CCC(=O)O)C(=O)N[C@@H](CCC(N)=O)C(=O)N[C@@H](CCC(=O)O)C(=O)N[C@@H](CCCCN)C(=O)N[C@@H](CCC(N)=O)C(=O)N[C@@H](CCCCN)C(=O)N[C@@H](C)C(=O)N[C@@H](CCC(N)=O)C(=O)N[C@@H](CCCNC(=N)N)C(=O)N[C@@H](CCC(=O)O)C(=O)N[C@@H](CCC(N)=O)C(=O)N[C@@H](C)C(=O)N[C@@H](CCC(=O)O)C(=O)N[C@H](C(=O)N[C@@H](CC(N)=O)C(=O)NC1(C(=O)N[C@@H](CCC(N)=O)C(=O)N[C@H](C(=O)N[C@@H](CC(C)C)C(=O)N[C@@H](C)C(=O)N[C@@H](CCC(N)=O)C(=O)N[C@H](C(N)=O)C(C)C)[C@@H](C)CC)CCNCC1)[C@@H](C)O)[C@@H](C)CC)[C@@H](C)CC)C(C)C)C(C)C
Regarding B5, the EC50 [nM] (cAMP) in experiment [1] was 0.51 nM. For the same molecule, the “Emax (% I)” value in experiment [2] was 25%.

B6: SEQ ID NO 61 (peptide)
peptide: Ac-IVLSLD[dV]PIKLK([γGlu-C16 diacid])KILLEQEKQKKQREQAETN[Ac3c]QILAQV-NH2
SMILES: CC[C@H](C)[C@H](NC(C)=O)C(=O)N[C@H](C(=O)N[C@@H](CC(C)C)C(=O)N[C@@H](CO)C(=O)N[C@@H](CC(C)C)C(=O)N[C@@H](CC(=O)O)C(=O)N[C@@H](C(=O)N1CCC[C@H]1C(=O)N[C@H](C(=O)N[C@@H](CCCCN)C(=O)N[C@@H](CC(C)C)C(=O)N[C@@H](CCCCNC(=O)CC[C@H](NC(=O)CCCCCCCCCCCCCCC(=O)O)C(=O)O)C(=O)N[C@@H](CCCCN)C(=O)N[C@H](C(=O)N[C@@H](CC(C)C)C(=O)N[C@@H](CC(C)C)C(=O)N[C@@H](CCC(=O)O)C(=O)N[C@@H](CCC(N)=O)C(=O)N[C@@H](CCC(=O)O)C(=O)N[C@@H](CCCCN)C(=O)N[C@@H](CCC(N)=O)C(=O)N[C@@H](CCCCN)C(=O)N[C@@H](CCCCN)C(=O)N[C@@H](CCC(N)=O)C(=O)N[C@@H](CCCNC(=N)N)C(=O)N[C@@H](CCC(=O)O)C(=O)N[C@@H](CCC(N)=O)C(=O)N[C@@H](C)C(=O)N[C@@H](CCC(=O)O)C(=O)N[C@H](C(=O)N[C@@H](CC(N)=O)C(=O)NC1(C(=O)N[C@@H](CCC(N)=O)C(=O)N[C@H](C(=O)N[C@@H](CC(C)C)C(=O)N[C@@H](C)C(=O)N[C@@H](CCC(N)=O)C(=O)N[C@H](C(N)=O)C(C)C)[C@@H](C)CC)CC1)[C@@H](C)O)[C@@H](C)CC)[C@@H](C)CC)C(C)C)C(C)C
As to B6, in experiment [1], the EC50 [nM] (cAMP) was determined as 0.36 nM. Moreover, the “Emax (% I)” value in experiment [2] was 3%.

(Values after patent publication US20260001928A1 (CORTERIA PHARMACEUTICALS, priority 2022, published 2026).)
